# In patent publication US8273357B2, “Antigen-carbohydrate conjugates” (Massachusetts Institute of Technology, priority 2004, dated 2012):
# Legend:
# [1] = target: T1, mannose receptor (Homo sapiens, UniProt P22897); conditions: cited from earlier work
# T1 sequence (P22897 19-1456): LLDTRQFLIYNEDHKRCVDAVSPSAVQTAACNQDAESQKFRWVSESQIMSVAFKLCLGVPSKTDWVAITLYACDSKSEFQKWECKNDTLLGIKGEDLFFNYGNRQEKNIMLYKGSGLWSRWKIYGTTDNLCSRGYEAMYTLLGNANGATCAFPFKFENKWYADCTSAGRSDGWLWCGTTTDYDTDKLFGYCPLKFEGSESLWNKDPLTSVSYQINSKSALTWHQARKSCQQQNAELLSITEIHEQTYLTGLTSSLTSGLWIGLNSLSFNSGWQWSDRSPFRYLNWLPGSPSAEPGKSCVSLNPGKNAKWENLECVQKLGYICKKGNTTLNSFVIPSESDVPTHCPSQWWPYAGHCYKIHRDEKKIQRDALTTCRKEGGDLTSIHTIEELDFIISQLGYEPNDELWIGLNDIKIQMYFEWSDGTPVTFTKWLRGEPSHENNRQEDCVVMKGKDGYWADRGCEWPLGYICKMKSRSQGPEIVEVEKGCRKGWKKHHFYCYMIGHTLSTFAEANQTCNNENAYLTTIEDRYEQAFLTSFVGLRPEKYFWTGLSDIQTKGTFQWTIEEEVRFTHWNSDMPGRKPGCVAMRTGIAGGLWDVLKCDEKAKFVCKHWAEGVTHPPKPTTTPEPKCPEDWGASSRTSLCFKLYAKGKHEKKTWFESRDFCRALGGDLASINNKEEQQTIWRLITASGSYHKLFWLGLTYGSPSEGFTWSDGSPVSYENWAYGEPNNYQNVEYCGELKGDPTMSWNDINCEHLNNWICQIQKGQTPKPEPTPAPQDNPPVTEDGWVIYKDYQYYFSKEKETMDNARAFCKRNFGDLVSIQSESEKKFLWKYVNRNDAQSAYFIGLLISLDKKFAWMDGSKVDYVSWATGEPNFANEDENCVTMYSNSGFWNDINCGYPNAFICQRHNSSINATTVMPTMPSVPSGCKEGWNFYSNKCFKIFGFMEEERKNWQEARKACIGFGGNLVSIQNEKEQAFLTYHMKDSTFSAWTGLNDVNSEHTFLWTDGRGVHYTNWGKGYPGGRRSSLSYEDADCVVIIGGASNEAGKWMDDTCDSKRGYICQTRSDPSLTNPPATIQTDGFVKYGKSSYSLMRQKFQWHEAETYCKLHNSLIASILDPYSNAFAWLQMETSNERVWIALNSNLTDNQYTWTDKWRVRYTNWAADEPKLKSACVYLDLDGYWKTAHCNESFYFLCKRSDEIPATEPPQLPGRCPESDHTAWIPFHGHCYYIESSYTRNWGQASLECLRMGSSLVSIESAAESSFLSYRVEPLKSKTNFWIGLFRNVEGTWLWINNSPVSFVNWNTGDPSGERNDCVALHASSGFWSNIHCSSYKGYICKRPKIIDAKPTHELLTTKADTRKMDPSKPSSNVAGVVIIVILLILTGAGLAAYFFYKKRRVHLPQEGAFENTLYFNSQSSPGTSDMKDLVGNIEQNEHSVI
# [2] = system: IFN-γ; experiment: IFN-γ ELISA of supernatants from purified dendritic cell/OTII T cell assay; assay type: cell-based, mouse; conditions: average; 72 h supernatants
# Protocol: FIGS. 4A, 4B, 4C and 4D are graphs showing that CD11c^+ dendritic cells are the main antigen presenting cells presenting 3-1-targeted antigen. […] 1.5×10^4 Splenic CD11c^+ dendritic cells purified from C57BL/6 mice and 3.0×10^4 purified OTII T cells were incubated with OVA (starting concentration 300 μg mL^−1) or (OVA)-3-1 (starting concentration 25 μg mL^−1) in graded doses for eight-four hours with [^3H]thymidine (1 μCi) added for the last twelve hours. […] Purified CD11c^+ dendritic cells and OTII T cells were incubated with (OVA)-3-1 (25 μg mL^−1)±each potential inhibitor (100 μg mL^−1). T cell proliferation was determined as for FIG. 4A. […] CD11c^+ dendritic cells and OTII T cells were incubated with OVA or (OVA)-3-1±lipopolysaccharide ([…]). Also included are all ‘non-dendritic cells’ (macrophages and B cells) obtained during the purification of the dendritic cells. T cell proliferation was determined as described in FIG. 4A. […] Supernatants from cells described in FIG. 4C were collected at forty-eight and seventy-two hours and measured for IFN-γ by ELISA; the values presented are from the seventy-two hour time point. […]
# 75-150 μL aliquots of supernatant were sampled from antigen presentation assays at 24, 48, and 72 hours. […] 25 μL of each supernatant were diluted 1:1 with PBS/1% BSA and analyzed in triplicate for IFN-γ, IL-10, and IL-4 using DuoSet ELISA reagents from R&D Systems. […]
Molecule,ligand for the mannose receptor [1],less IFN-γ produced by T cells responding to OVA than to (OVA)-3-1 [2] [%]
mBSA: BSA modified with approximately 25 mannose residues per protein molecule [reference compound],nanomolar ligand,
"ovalbumin (protein, UniProt P01012 2-386, looked up, model antigen, unmodified) Ovalbumin: GSIGAASMEFCFDVFKELKVHHANENIFYCPIAIMSALAMVYLGAKDSTRTQINKVVRFDKLPGFGDSIEAQCGTSVNVHSSLRDILNQITKPNDVYSFSLASRLYAEERYPILPEYLQCVKELYRGGLEPINFQTAADQARELINSWVESQTNGIIRNVLQPSSVDSQTAMVLVNAIVFKGLWEKAFKDEDTQAMPFRVTEQESKPVQMMYQIGLFRVASMASEKMKILELPFASGTMSMLVLLPDEVSGLEQLESIINFEKLTEWTSSNVMEERKIKVYLPRMKMEEKYNLTSVLMAMGITDVFSSSANLSGISSAESLKISQAVHAAHAEINEAGREVVGSAEAGVDAASVSEEFRADHPFLFCIKHIATNAVLFFGRCVSP",,40
